Experimental data as given in the supplement of paper PMC10567573.
± gives the standard deviation.

Experiment: protein stability index of a GFP-peptide fusion (GPS, HEK-293T) (PSI 1-6); higher = more stable
Details: c terminus: a fixed tail appended
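Note: 24-mer peptide tiles fused after GFP, lentivirally expressed, FACS-sorted into six equal bins by GFP/DsRed ratio, decoded by Illumina sequencing, PSI is the read-weighted mean bin number.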

Row | Sequence | protein stability index (treatment: DMSO) | protein stability index (treatment: MLN4924 1 uM, 8 h)
1 | TFFEVSPLCNFNIIESFTELARIV [RAB40A] | 2.53 ± 0.42 | 2.43 ± 0.28
2 | QTEKLDTNITEVDAASVYTLPAGA [CASP6] | 5.02 ± 0.2 | 4.81 ± 0.12
3 | MLLELTRRGQEPLSALLQFGVTYL [BCL2L13] | 2.63 ± 0.59 | 2.4 ± 0.41
4 | MNMLWSRMLKDNKKNWRRVYKSLL [CLINT1] | 2.62 ± 0.74 | 2.58 ± 0.61
5 | PSFHPHAGGGSQENLDNDTETDSL [DVL3] | 5.58 ± 0.31 | 5.5 ± 0.29
6 | RKHIIEGLKASLERLQLEYVDVVF [KCNAB2] | 2.94 ± 0.58 | 3 ± 0.53
7 | AGEGLVRSANGFPYREDEEGAFGE [MAP2] | 5.27 ± 0.18 | 5.24 ± 0.38
8 | QKILCAKAENARLVVNIDNAKLAS [KRT34] | 3.49 ± 0.2 | 3.56 ± 0.11
9 | YMAICKPLHELITMNRRVCVLMLL [OR4A15] | 2.79 ± 0.49 | 2.35 ± 0.32
10 | ESGVDVNSQNEVNGWTCLHWACKR [ANKRD40] | 3.06 ± 0.22 | 3.31 ± 0.46
11 | EDDIRPDIKDDIYDPTYKDKEGPS [SCD] | 5.46 ± 0.39 | 5.37 ± 0.34
12 | MRFASGRPAFVRVRRGHSHLAPSE | 3.08 ± 0.22 | 3.29 ± 0.4
13 | PWLCGESFTLADVSLAVTLHRLKF [GDAP1] | 2.65 ± 0.43 | 2.35 ± 0.41
14 | EGVEIMLGVCASGLLIYRDRLRIN [EPB41L3] | 2.75 ± 2.1 | 2.12 ± 0.2
15 | QTEPQDRSPAPMSCDKSTQTPSPP [BCL2L11] | 5.58 ± 0.14 | 5.38 ± 0.23
16 | REPVTKAEMLGSVVGNWQYFFPVI [MAGEA3] | 2.17 ± 0.18 | 2.25 ± 0.27
17 | PLTFDKNENMAAKKKSVAMHTNYL [GNB5] | 3.33 ± 0.26 | 3.46 ± 0.26
18 | IDKEIELHRILHHKHVVQFYHYFE [PLK2] | 2.12 ± 0.29 | 2.18 ± 0.38
19 | DIKAEPQPLSPASSSYSVSSPRSV [ATF6] | 4.61 ± 0.14 | 4.74 ± 0.44
20 | VKLLVDLELSYGFENGQKAAVVHH [TOR1AIP2] | 2.22 ± 0.26 | 2.3 ± 0.12
21 | ALNSMLRRRFREKKKAIQEEEERD [YJU2B] | 3.57 ± 0.12 | 3.59 ± 0.1
22 | NHIGMGVRYNAEKKKVGNYYTTPI [YJU2B] | 3.03 ± 0.22 | 3.27 ± 0.18
23 | HDFFLQGFTPDRLSSSCCHTVPDF [PLK2] | 2.71 ± 0.23 | 2.73 ± 0.24

Row | Sequence | protein stability index (treatment: DMSO) | protein stability index (treatment: MLN4924 1 uM, 8 h)
24 | GRARATGGDLEEQQHAEGSPEPGT [DNAAF3] | 5.59 ± 0.3 | 5.54 ± 0.23
25 | QNIYKCIMLKNISQDERLDVLLTL [IQUB] | 2.5 ± 0.098 | 2.61 ± 0.51
26 | DSAELEPGSQTAVKNSNRYDVEMT [FBXO34] | 5.26 ± 0.2 | 5.29 ± 0.2
27 | FVNDLTVTQDGRKIYFTDSSSKWQ [APMAP] | 2.8 ± 0.46 | 2.92 ± 0.24
28 | TRKINNSFLRDHSYATEADIISTV [PPP2R2B] | 3.32 ± 0.14 | 3.32 ± 0.12
29 | HVQNQVDEVIDVMQENITKVIERG [VAMP4] | 3.95 ± 0.2 | 4.13 ± 0.52
30 | NFQNIPKETELPFPKQILDQNNVI [MIA2] | 3.54 ± 0.34 | 3.45 ± 0.24
31 | GKWMKKFPESETKECPFRVNKVCG [SERPINB5] | 3.13 ± 0.32 | 3.47 ± 0.38
32 | WFLNALHSALGGTKKKKKTIVTDV [USP39] | 2.6 ± 0.61 | 2.19 ± 0.47
33 | KEKDSPFKPKLYKGDRGLPLEGSA [RBBP5] | 4.57 ± 0.34 | 4.32 ± 0.23
34 | ITTIGYGHAAPGTDAGKAFCMFYA [KCNK9] | 2.9 ± 0.49 | 2.8 ± 0.56
35 | APIDWIEEYTTGMADCILVNSQFT [ALG2] | 2.64 ± 0.25 | 2.81 ± 0.49
36 | GDWHSPTLIREKSFGACLREETPR [ELOA2] | 3.61 ± 0.3 | 3.76 ± 0.32
37 | ITNVDLREYLSEEVQAVHKNTTYD [USP39] | 4.2 ± 0.24 | 4.17 ± 0.19
38 | KQQWEIMHKHNETSQKIAARAFAQ [RSPH3] | 3.41 ± 0.2 | 3.38 ± 0.14
39 | YHLEKQTALLGGPRRCHSAPPQGS [PLEKHN1] | 3.28 ± 0.036 | 3.14 ± 0.53
40 | PLGTQVAVNAHQWLDNPERWNKVK [SEPHS2] | 3.65 ± 0.084 | 3.61 ± 0.26
41 | TRYHLQQARRQQVKQYLSTTLGPK [TFE3] | 3.21 ± 0.15 | 3.29 ± 0.2
42 | PDVTRVGLLQYGSTVKNEFSLKTF [MATN2] | 2.94 ± 0.23 | 2.85 ± 0.44
43 | LCKLFPFLQKSSVGITVLNLCALS [EDNRA] | 2.47 ± 0.18 | 2.72 ± 0.57
44 | MCQTKHSPWADGTPCGPAQACMGG [ADAMTS4] | 3.26 ± 0.43 | 3.44 ± 0.4
45 | VGLAAVNSMPVDNRNHNEGMVTRC [CHGB] | 4.27 ± 0.23 | 4.3 ± 0.37
